# Results published in US20170327585A1 (PHARMABCINE, published 2017).
# Where a chain is given by its changes, count along the chain named.
# B1: PD10 human IgG (antibody, V domains shown)
# VH: QVQLVESGGGLVQPGGSLRLSCAASGFTFDEHAMHWVRQAPGKGLQWVSGINWNSGKTGYADSVKGRFTISRDNSKNSLYLQMNSLRAEDTAVYYCTRPGEDTGGGFDIWGQGTMITVSS
# VL: NFMLTQPASVSGSPGQSITISCTGSSSDVGGYNYVSWYQQHPGKAPQLIIYDVTKRPSGVSNRFSGSKSGNSASLTISGLQAEDEADYYCSSYSSSTFYVFGTGTKVTVLG
# notes: Whole human IgG
# B2: PA430 human IgG (antibody, V domains shown)
# VH: QMQLVESGGGVVQPGKSLRLSCAASGFTFSYHAMHWVRQAPGKGLEWLAAMSHDGTETSYADSVKGRITISRDNSKSALYLQMNSLRAEDTAVYYCTAEGLRSNGGAFETWGRGTMITVSS
# VL: SYELTQPPSVSVAPGQTARITCSGDVLPKHYAYWYQQKPGQAPVLVIYKDSERPSGIPERFTGSSSGTKVTLTISGVRAEDEADYYCQSVDSSDTSVVFGGGTKLTVLG
# notes: Converted from the phage antibody to whole human IgG with vectors pIgGHD-6A6Hvy and pIgGLD-6A6Lgt and expressed in HEK293T
# B3: PD27 human IgG (antibody, V domains shown)
# VH: B1 VH
# VL: B2 VL with P8L, A13S, P28A, K29D, A32S, I47M, T62S, K69T, R78Q
# notes: Whole human IgG
# B4: PD52 human IgG (antibody, V domains shown)
# VH: QMQLVQSGGGVVQPGGSLRLSCVGSGFSFDDYAMHWVRQAPGKGLEWVSGISWNSGAIGYADSVKGRFTVSRDNSKNSLYLQMNSLRAEDTAVYYCATASRGLGDAFDIWGQGTMVTVSS
# VL: B2 VL with A13S, S51T, T62S, K69T, R78Q, S92N
# notes: Whole human IgG
# Molecular target: BSA (UniProt P02769 25-607)
# Assay: ELISA, coated BSA, anti-human IgG HRP
# Method: ELISAs were performed to identify antigen-specific binding capacity of clones converted to IgG EGFRvIII peptide, […] peptide and BSA were coated on […] 96 well plates at 37° C. for 2 hours. Thereafter, after blocking the uncoated portion with 3% skim milk/0.05% PBST, 1 μg/ml IgG was added to the plate and reacted at 37° C. for 1 hour. Anti-human IgG HRP (pierce, USA) was diluted in 1:3000 and reacted for 1 hour. Next, the TMB substrate (BD, USA) was treated for 10 minutes for color development, and the reaction was stopped by treating with 2N H2SO4. As to the color developed ELISA, the absorbance was measured at 450 nm-650 nm using a Sunrise ELISA reader (TECAN, Switzerland).
# Sequence of BSA (P02769 25-607 limits assumed): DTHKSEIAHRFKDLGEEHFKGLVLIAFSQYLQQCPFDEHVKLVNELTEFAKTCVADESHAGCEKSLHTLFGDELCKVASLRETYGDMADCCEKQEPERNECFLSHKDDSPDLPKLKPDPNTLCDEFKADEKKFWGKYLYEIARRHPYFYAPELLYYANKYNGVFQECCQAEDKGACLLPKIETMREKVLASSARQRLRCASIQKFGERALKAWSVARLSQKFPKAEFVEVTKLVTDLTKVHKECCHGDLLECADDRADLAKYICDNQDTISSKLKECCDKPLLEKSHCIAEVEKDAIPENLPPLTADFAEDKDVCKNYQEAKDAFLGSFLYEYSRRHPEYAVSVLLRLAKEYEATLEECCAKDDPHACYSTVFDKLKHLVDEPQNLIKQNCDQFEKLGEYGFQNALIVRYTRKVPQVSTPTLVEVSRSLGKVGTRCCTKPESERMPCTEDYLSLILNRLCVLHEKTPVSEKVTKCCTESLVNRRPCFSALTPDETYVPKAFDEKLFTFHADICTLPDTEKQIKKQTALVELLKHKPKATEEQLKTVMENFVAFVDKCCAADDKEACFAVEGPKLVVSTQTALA
row,Binder,binding result
1,B1,no binding (tested: 1 µg/ml IgG)
2,B2,no binding (tested: 1 µg/ml IgG)
3,B3,no binding (tested: 1 µg/ml IgG)
4,B4,no binding (tested: 1 µg/ml IgG)
